According to patent US20150368661A1 (UNIVERSITY OF LOUISVILLE RESEARCH FOUNDATION, published 2015):
Where two headings read alike, the source gives them in different places.

Columns and labels:
[1] = molecular target: T1, recombinant gp120 from HIV-1 Q769.H5 (clade A) (HIV-1 Q769.H5 (clade A)); assay: gp120-ELISA, plate coated with recombinant gp120, non-linear regression
T1 construct: domain: gp120

[2] = molecular target: T2, recombinant gp120 from HIV-1 SF162 (clade B) (HIV-1 SF162 (clade B), UniProt P19550 32-502); assay: as above
T2 construct: domain: gp120; also called gp120SF162

[3] = molecular target: T3, recombinant gp120 from HIV-1 DU156 (clade C) (HIV-1 DU156 (clade C)); assay: as above
T3 construct: domain: gp120; also called gp120DU156

[4] = molecular target: T2, recombinant gp120 from HIV-1 SF162 …
[5] = molecular target: T2, recombinant gp120 from HIV-1 SF162 …; assay: gp120-ELISA, plate coated with recombinant gp120, non-linear regression; VRC01p (plant-produced)
[6] = molecular target: T4, HIV-1 Env of strain Du156 (clade C) on Env-pseudotyped virus (HIV-1 Du156 (clade C)); assay: cell-based or functional assay
[7] = molecular target: T5, HIV-1 Env of strain SS1196.1 (clade B) on Env-pseudotyped virus (HIV-1 SS1196.1 (clade B)); assay: cell-based or functional assay
[8] = molecular target: T6, HIV-1 Env of strain Q769.h5 (clade A) on Env-pseudotyped virus (HIV-1 Q769.h5 (clade A)); assay: cell-based or functional assay
[9] = molecular target: T7, HIV-1 Env of strain SF162 (clade B) on Env-pseudotyped virus (HIV-1 SF162 (clade B), UniProt P19550 32-847); assay: cell-based or functional assay
[10] = molecular target: T2, recombinant gp120 from HIV-1 SF162 …; assay: VRC01p (plant-produced)
[11] = molecular target: T4, HIV-1 Env of strain Du156 (clade C) on …; assay: cell-based or functional assay; remark: listed apart in the source
[12] = molecular target: T5, HIV-1 Env of strain SS1196.1 (clade B) …; assay: cell-based or functional assay; remark: listed apart in the source
[13] = molecular target: T6, HIV-1 Env of strain Q769.h5 (clade A) …; assay: cell-based or functional assay; remark: listed apart in the source
[14] = molecular target: T7, HIV-1 Env of strain SF162 (clade B) on …; assay: cell-based or functional assay; remark: listed apart in the source

B1: VRC01HEK (HEK293F cell-produced bnMAb VRC01) (antibody)
light: EIVLTQSPGTLSLSPGETAIISCRTSQYGSLAWYQQRPGQAPRLVIYSGSTRAAGIPDRFSGSRWGPDYNLTISNLESGDFGVYYCQQYEFFGQGTKVQVDIKRTVAAPSVFIFPPSDEQLKSGTASVVCLLNNFYPREAKVQWKVDNALQSGNSQESVTEQDSKDSTYSLSSTLTLSKADYEKHKVYACEVTHQGLRSPVTKSFNRGEC
heavy: not shown
notes: also called human cell-produced VRC01; human cell-derived bnMAb
EC50 [1]: 0.28 µg/mL
EC50 [2]: 4.24 µg/mL
EC50 [3]: 15.1 µg/mL
Kd [4]: 3.82 nM

B2: VRC01p (Nicotiana benthamiana plant-expressed anti-HIV-1 bnMAb VRC01 IgG1 from the L-(KP6pp)-H construct) (antibody)
light: EIVLTQSPGTLSLSPGETAIISCRTSQYGSLAWYQQRPGQAPRLVIYSGSTRAAGIPDRFSGSRWGPDYNLTISNLESGDFGVYYCQQYEFFGQGTKVQVDIKRTVAAPSVFIFPPSDEQLKSGTASVVCLLNNFYPREAKVQWKVDNALQSGNSQESVTEQDSKDSTYSLSSTLTLSKADYEKHKVYACEVTHQGLRSPVTKSFNRGECGGK
heavy: not shown
notes: also called plant-produced VRC01; VRC01p IgG1
EC50 [5]: 4.11 µg/mL
IC50 (µg/ml) for VRC01p alone, HIV-1 neutralization, TZM-bl cells (VRC01p:GRFT series) [6]: 0.25 µg/mL
IC50 (µg/ml) for VRC01p alone, HIV-1 neutralization, TZM-bl cells (VRC01p:MVC series) [6]: 0.26 µg/mL
IC50 (µg/ml) for VRC01p alone, HIV-1 neutralization, TZM-bl cells (VRC01p:TFV series) [6]: 0.23 µg/mL
IC50 (µg/ml) for VRC01p alone, HIV-1 neutralization, TZM-bl cells (VRC01p:GRFT series) [7]: 2.61 µg/mL
IC50 (µg/ml) for VRC01p alone, HIV-1 neutralization, TZM-bl cells (VRC01p:MVC series) [7]: 2.22 µg/mL
IC50 (µg/ml) for VRC01p alone, HIV-1 neutralization, TZM-bl cells (VRC01p:TFV series) [7]: 2.14 µg/mL
IC50 (µg/ml) for VRC01p alone, HIV-1 neutralization, TZM-bl cells (VRC01p:GRFT series) [8]: 0.37 µg/mL
IC50 (µg/ml) for VRC01p alone, HIV-1 neutralization, TZM-bl cells (VRC01p:MVC series) [8]: 0.54 µg/mL
IC50 (µg/ml) for VRC01p alone, HIV-1 neutralization, TZM-bl cells (VRC01p:TFV series) [8]: 0.47 µg/mL
IC50 (µg/ml) for VRC01p alone, HIV-1 neutralization, TZM-bl cells (VRC01p:GRFT series) [9]: 0.98 µg/mL
IC50 (µg/ml) for VRC01p alone, HIV-1 neutralization, TZM-bl cells (VRC01p:MVC series) [9]: 0.5 µg/mL
IC50 (µg/ml) for VRC01p alone, HIV-1 neutralization, TZM-bl cells (VRC01p:TFV series) [9]: 0.65 µg/mL
Kd [10]: 3.97 nM
EC50 [1]: 0.35 µg/mL
EC50 [3]: 67.9 µg/mL
VRC01p IC50 (µg/ml), HIV-1 neutralization [11]: 0.14 µg/mL
VRC01p IC50 (µg/ml), HIV-1 neutralization [12]: 1.32 µg/mL
VRC01p IC50 (µg/ml), HIV-1 neutralization [13]: 0.17 µg/mL
VRC01p IC50 (µg/ml), HIV-1 neutralization [14]: 0.04 µg/mL
